The values that follow come from paper PMC6451933.

For the assay, the target named is t-SNARE complex (syntaxin 1 and SNAP25) (UniProt Q16623).
Sequence of t-SNARE complex (syntaxin 1 and SNAP25) (Q16623 whole entry, chain 1 of 2): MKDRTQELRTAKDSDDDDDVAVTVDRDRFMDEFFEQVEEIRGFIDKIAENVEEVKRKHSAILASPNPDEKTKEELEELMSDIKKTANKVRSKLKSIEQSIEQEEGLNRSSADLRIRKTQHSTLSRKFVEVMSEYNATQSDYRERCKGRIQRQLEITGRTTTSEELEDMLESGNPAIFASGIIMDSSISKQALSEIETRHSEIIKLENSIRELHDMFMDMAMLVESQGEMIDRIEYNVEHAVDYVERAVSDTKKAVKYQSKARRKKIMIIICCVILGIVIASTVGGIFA
Sequence of t-SNARE complex (syntaxin 1 and SNAP25) (chain, as listed by the source, chain 2 of 2): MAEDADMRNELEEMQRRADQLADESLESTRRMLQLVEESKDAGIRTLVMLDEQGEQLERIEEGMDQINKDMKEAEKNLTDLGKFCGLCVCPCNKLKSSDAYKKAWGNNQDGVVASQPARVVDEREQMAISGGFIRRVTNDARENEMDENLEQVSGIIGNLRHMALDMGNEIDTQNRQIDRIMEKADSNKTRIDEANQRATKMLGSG

“VAMP2 p.Ser75Pro variant (from UniProt P63027 1-116) (natural protein)”: the reconstituted liposome lipid-mixing assay (NBD dequenching), basal fusion without Munc18-1 of v-liposomes with t-SNARE liposomes, against WT VAMP2 was 25%.
